Residue numbers refer to the chain shown, from its start. Where two headings read alike, the source gives them in different places.

The subject of this experiment is HBEGF locus. In kind it is cell-based, human. Particulars: high-throughput screen of dXR repression of the HBEGF gene.
Setting [1] is: abundance of each domain in the library before and after diphtheria toxin selection, HEK293T cells.

B1: DOMAIN_15089 (protein)
chain: SQELVAFEDVLVDFTPEEWQYLNSSQKTLYREVMLETYSNLVSVAGQQDTKPDLILKLELEGPCLAERKISVWSFPEEACQ
modifications: Vulpes vulpes
As to B1, the “Log2 (fold change)” value under setting [1] is 2.3585.

B2: DOMAIN_15138 (protein)
chain: CEGSVSFEDVTMDFSREEWQQLDPAQRCLYQDVMLEIYSHLLFVGYNIPNPEIISRMEKGEEPWMREVQLPHQRHRERAFG
modifications: Vulpes vulpes
As to B2, the “Log2 (fold change)” value under setting [1] is reported as 3.1771.

B3: DOMAIN_15800 (protein, listed as Otolemur garnettii)
chain: MAFEDVAVYFSQEEWGLLDTAQRALYRHVMLENFTLVSSLGLSTSRPRVVVQLERGEEPWVPSRIDSTPARNAQGRRNPGS
For the molecule B3, the “Log2 (fold change)” value under setting [1] turned out to be 3.4462.

B4: DOMAIN_15451 (protein)
chain: PLKLVTFEDVAVDFTQEEWSLLDKSQKNLFRNVMMETIHHLVSVGYQISKSDVISQLEQGKELWSKAAGGFQGQRPGEHQG
modifications: Bison bison
Consider B4, for which the “Log2 (fold change)” value under setting [1] was 3.2905.

B5: DOMAIN_14746 (protein, listed as Odocoileus virginianus)
chain: VTELLTFKDISVDFTQEEWGQLAPAHRNLYREVMLENYGNLVSVAGCQLSKPSVISQLEKGEEPWMTEKEGAGDPSSDLKS
Regarding B5, the “Log2 (fold change)” value under setting [1] is reported as 2.605.

B6: DOMAIN_15279 (protein, listed as Callithrix jacchus)
chain: VNDLVTFKDVAIDFSQEEWQWMNPAQKRLYRSMMLENYQSLVSLGLCVSKPYVISLLEQGREPWEMTSEMRRSPFSDWESI
Turning to B6, the “Log2 (fold change)” value under setting [1] is 3.8574.

B7: DOMAIN_15356 (protein, listed as Acinonyx jubatus)
chain: TPDVVTFEDVAVCFSSGEWQCLTRAQRHLYTDVMLENYGNMLSAGLACPKPPLISHLEQGAVPCAEDLQDWGFLTCSFPVS
On to B7, for which the “Log2 (fold change)” value under setting [1] is on record as 3.5466.

B8: DOMAIN_14546 (protein)
chain: GLLSFEDVALYFTREEWDTLDWAQKALYRDVMLDNYRHIVSLGFPFPKPEVICQLEQWEEPWILDLPRAGTRKASGSACPD
modifications: Muntiacus muntjak
As to B8, under setting [1], the “Log2 (fold change)” value was 3.5039.

B9: DOMAIN_15184 (protein, listed as Acinonyx jubatus)
chain: ASVVFEDVAVNFTPEEWALLNPGQRKLYRDVMLETCRNLSAVGCRSQGNTSTPRPQWSILLNEPPGEDKTGIFTRKDSCSV
Turning to B9, the “Log2 (fold change)” value under setting [1] stood at 3.0092.

B10: DOMAIN_16050 (protein)
chain: PLESVTFEDVAVDFTQEEWSLLDKSQKNLFRNVMLETVTHLVSVGYQISKSDVIFQLEQGKELWPEAAGGLQGQSPDEVTP
modifications: Ovis aries
B10: under setting [1], the “Log2 (fold change)” value turned out to be 2.7105.

B11: DOMAIN_15669 (protein, listed as Callorhinus ursinus)
chain: FQDSVTFEDVAVRFSSGEWQCLTRAQRHLYADVMLENYWNVISVGFAVPKPPLISHLEQGAEPCVQDLQDGGFLSCSFPVS
In the case of B11, the “Log2 (fold change)” value under setting [1] turned out to be 2.8865.

B12: DOMAIN_15227 (protein, listed as Rhinopithecus roxellana)
chain: MAFEDVAVYFSQEEWGLLDTAQRALYRHVMLDNFTLVTSLGLSTSRPHVVIQLERGEEPWVPSGKDMTLARNTYRRLNAGE
Consider B12, for which, under setting [1], the “Log2 (fold change)” value is 3.5532.

B13: DOMAIN_16246 (protein, listed as Macaca mulatta)
chain: ASVTVTFDDVALYFSEQEWEILEKWQKQMYKQEMKTNYQTLDSLGYAFSKPDLITWMEQGRMLFISEQGCLDKTRRTTSPP
As for B13, the “Log2 (fold change)” value under setting [1] worked out at 2.3971.

B14: DOMAIN_16461 (protein)
chain: AQESVTFEDVAVNFTDREWQCLTYAQRHLYKDVMLENYGNMVSVGFPFPKPPLISHLERGVELCVQDPQDRESLSCSCLVS
modifications: Cebus imitator
Consider B14, for which the “Log2 (fold change)” value under setting [1] is 3.1155.

B15: DOMAIN_15251 (protein, listed as Callithrix jacchus)
chain: AAGRVTFEDVTVSFTKGEWQQLNPEQRELYRDVMLENYGNLVSVGLEETSKPSVILRLEEGKEPWSEEEVLRGGRPEKNWD
B15: the “Log2 (fold change)” value under setting [1] was determined as 2.2209.

B16: DOMAIN_15269 (protein)
chain: YRGPVTFKDITVEFTREEWKLLDTAQRTLYREVMQENYSHLISVGYCANRPNAIFKLKQGKEPWILEVQFPRQKNPEDLCN
modifications: Ovis aries
On to B16, for which the “Log2 (fold change)” value under setting [1] was found to be 2.0839.

B17: DOMAIN_14714 (protein, listed as Odocoileus virginianus)
chain: PQESVTFEDVAVNFSYEEWQCLTHAQRHLYTDVMLENYGNMVSLGFSFSKPPLISRLEQGTEPYVQDRQDWEFLNCSYPAA
For B17, the “Log2 (fold change)” value under setting [1] is 3.2752.

B18: DOMAIN_15839 (protein, listed as Callithrix jacchus)
chain: AQESMTFRDVAVFFSQDEWLHLDSAQRALYREVMLENYSTLVSLGIPFSMPKVIHQLQQGQDPCTVEGDVPSNTCLGFKTW
Take B18: the “Log2 (fold change)” value under setting [1] is recorded as 2.3399.

B19: DOMAIN_14983 (protein, listed as Rhinopithecus roxellana)
chain: MAFEDVAVYFSQEEWGLLDTAQRALYRRVMLDNFALVASLGLSTSRPRVVIQLERGEEPWVPSGTDTVLSRNTYRRRNPGS
As to B19, under setting [1], the “Log2 (fold change)” value is 3.704.

B20: DOMAIN_15638 (protein, listed as Sapajus apella)
chain: B19 chain with T67M, V68T, L69M, Y74H, P79S, S81F
Take B20: under setting [1], the “Log2 (fold change)” value worked out at 3.4277.

B21: DOMAIN_15406 (protein)
chain: B12 chain with H28R, T35A, T38A, H48R, R75G, A79S, E81S
modifications: Pan troglodytes
B21: under setting [1], the “Log2 (fold change)” value stood at 3.4616.

B22: DOMAIN_24125 (protein, listed as Saimiri boliviensis)
chain: B19 chain with S45T, T67M, V68T, L69M, T73A, Y74H
For B22, under “change in abundance of each domain in the library before and after diphtheria toxin selection”, the “Log2 (fold change)” value amounted to 3.9692.

B23: DOMAIN_16534 (protein, listed as Acinonyx jubatus)
chain: SHGPLSFEDVAVAFTKEEWQQLDPAQRTLYRDVMLENFSHVISLGHPVSKPDVISKLEQGEEPWIIKRDVSDWIYPERETR
Consider B23, for which the “Log2 (fold change)” value under setting [1] was found to be 2.7531.

B24: DOMAIN_14946 (protein, listed as Acinonyx jubatus)
chain: LQVSVSFEDVTVNFSREEWQRLDPAQRRLYRDVTLENYSHLRSVGYQVPKPEVIFKLEQGEGPWTLEGETPHQSCSGEDIG
In the case of B24, the “Log2 (fold change)” value under setting [1] is 3.2842.

B25: DOMAIN_16115 (protein, listed as Bos taurus)
chain: VQGSVSFEDVAVGFSQEEWQILGPSQKALYWDVMLENYCNLVSVGYQAPTPNSLFQLEQGGPPWTVEGAALSSTCSGYQAT
Consider B25, for which the “Log2 (fold change)” value under setting [1] is 2.9023.

B26: DOMAIN_15863 (protein)
chain: CWGLLSFKDISMEFTWEEWQLLDSAQKYLYRDVILENYSHLVSLGYHGTKPDLIFKLEQGEEPWMINARVSRQSYPEGWKE
modifications: Vulpes vulpes
Turning to B26, the “Log2 (fold change)” value under setting [1] is reported as 2.7434.

For the origin of these results see patent US12551573B2, “Compositions and methods for the targeting of PCSK9” (Scribe Therapeutics Inc., priority 2022, dated 2026).
